Among the data in article PMC2408645 are beta-galactosidase activity, early and beta-galactosidase activity, late values, retold here.

Read-outs that look alike come from different tables or passages of the source.

What all share (test): two-hybrid
Test [1] deals with KpsC (E. coli K1 (strain EV36)) (UniProt P42217).
Test [2] concerns the target NeuS (E. coli K1 (strain EV36)).
Test [3] deals with KpsC (E. coli K1 (strain EV36)) (UniProt P42217). The source holds these as a separate data set.
Test [4] concerns the target NeuS (E. coli K1 (strain EV36)). This is another data set of the same source.

“KpsC (from UniProt P42217 1-675) (natural protein)”: the beta-galactosidase activity, early in test [1] was determined as 200 Miller units; in test [2], 420 Miller units; in test [3], 220 Miller units; in test [4] it was 560 Miller units. In addition, the beta-galactosidase activity, late worked out at 760 Miller units in test [1], 5540 Miller units in test [2], 540 Miller units in test [3] and 4700 Miller units in test [4].

As to KpsE (natural protein), the beta-galactosidase activity, early in test [1] stood at 230 Miller units; in test [2], 140 Miller units; in test [3] it was 65 Miller units. The beta-galactosidase activity, late in test [1] turned out to be 1170 Miller units; in test [2] it was 1050 Miller units; in test [3] it was 120 Miller units.

As for NeuE (natural protein), the beta-galactosidase activity, early was 16 Miller units in test [2] and 17 Miller units in test [4].

In the case of NeuS (enzyme), the beta-galactosidase activity, early in test [1] was 15 Miller units; in test [3], 18 Miller units.
